According to IntAct's records for PubMed 19737519:

Legend:
nle1_yeast RSA4 [1] = target: nle1_yeast RSA4 (UniProt P25382)
nle1_yeast RSA4 [2] = target: nle1_yeast RSA4 (UniProt P25382); remark: listed apart in the source

Chain of UniProt P25382 (P25382 whole entry): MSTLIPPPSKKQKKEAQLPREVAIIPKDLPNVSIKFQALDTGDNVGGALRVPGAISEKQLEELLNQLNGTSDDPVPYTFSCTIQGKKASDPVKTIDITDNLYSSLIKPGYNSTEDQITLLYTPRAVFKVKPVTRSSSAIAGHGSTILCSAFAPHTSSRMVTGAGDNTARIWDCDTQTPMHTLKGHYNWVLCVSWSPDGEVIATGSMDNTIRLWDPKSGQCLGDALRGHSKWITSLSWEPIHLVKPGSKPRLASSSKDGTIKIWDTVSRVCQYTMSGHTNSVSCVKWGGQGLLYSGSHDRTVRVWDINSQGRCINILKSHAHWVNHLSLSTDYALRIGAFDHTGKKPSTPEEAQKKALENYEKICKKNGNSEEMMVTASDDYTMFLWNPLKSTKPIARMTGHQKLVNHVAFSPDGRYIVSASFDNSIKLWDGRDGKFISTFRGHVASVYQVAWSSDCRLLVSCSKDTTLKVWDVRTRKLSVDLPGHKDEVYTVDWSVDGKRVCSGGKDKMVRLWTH

| Substance | effect of a mutation on the interaction (nle1_yeast RSA4 [1]) | effect of a mutation on the interaction (nle1_yeast RSA4 [2]) |
| --- | --- | --- |
| Midasin (Saccharomyces cerevisiae), Q12019 S4712A;S4714A | decreasing interaction | disrupting interaction |
| Midasin (Saccharomyces cerevisiae), Q12019 S4712T |  | decreasing interaction |
